We go through 38 molecules from patent publication US7026443.

For test [1], the target named is HLA-A*0301 (human). Description: competition with 125I-labelled standard peptide for purified HLA, gel filtration. For orientation: Size exclusion chromatography separates by hydrodynamic size, large species first.
Another test has as its target HLA-A*1101 (human). The test is described as above.
Test [2] concerns the target HLA-A*0301 (human).
The target of test [3] is HLA-A*0301 (human). The test is described as follows: competition with 125I-labelled standard peptide for purified HLA-A*0301, gel filtration.
The mark [4] stands for this setting: remark: other sources report otherwise.

Like-named read-outs stand apart in the source and are kept apart here.

Regarding DIILECVYCK (modifications not checked), the binding affinity ratio (IC50 of standard peptide / IC50 of test peptide) stood at 0.0065 in the test with HLA-A*0301 (human) [1] and 0.021 with HLA-A*1101 (human).
For the molecule SVYGDTLEK (modifications not checked) [HPV18 E6 peptide … (position 84, 9 amino acids)], the relative binding ratio (IC50 of standard peptide / IC50 of test peptide) came out at 0.08 with HLA-A*0301 (human) [1], 0.23 with HLA-A*1101 (human) and 0.08 in the test with HLA-A*0301 (human) [2].
In the case of WTGRCMSCCR (modifications not checked), the binding affinity ratio (IC50 of standard peptide / IC50 of test peptide) was 0.0003 in the test with HLA-A*0301 (human) [1] and 0.0008 with HLA-A*1101 (human).
With AMFQDPQER (modifications not checked), the binding affinity ratio (IC50 of standard peptide / IC50 of test peptide) was 0.017 with HLA-A*0301 (human) [1] (setting [4]) and 0.032 in the test with HLA-A*1101 (human) (setting [4]).
Take LILALLRYK (modifications not checked) [HPV45 E1 267 …]: the relative binding ratio (IC50 of standard peptide / IC50 of test peptide) (ratio to standard peptide) is 0.27 in the test with HLA-A*0301 (human) [1] and 0.18 with HLA-A*1101 (human).
As for CVYCKQQLLR (modifications not checked), the binding affinity ratio (IC50 of standard peptide / IC50 of test peptide) in the test with HLA-A*0301 (human) [1] worked out at 0.0001; in the test with HLA-A*1101 (human), 0.0005.
For GTTLEQQYNK (modifications not checked), in that order: 0.0002 and 0.07.
Consider PLCPEEKQR (modifications not checked) [HPV31 E6 peptide … (position 109, 9 amino acids; Seq. Id. No. 10308)], for which the values for the relative binding ratio (IC50 of standard peptide / IC50 of test peptide) with HLA-A*0301 (human) [1] and with HLA-A*1101 (human) were 0.0002 and 0.0005, respectively.
On to LIRCLRCQK (modifications not checked) [HPV18 E6 peptide … (position 102, 9 amino acids)], for which the relative binding ratio (IC50 of standard peptide / IC50 of test peptide) with HLA-A*0301 (human) [1] stood at 0.019; with HLA-A*1101 (human) it was 0.0012; with HLA-A*0301 (human) [2], 0.019.
With IILECVYCK (modifications not checked), the binding affinity ratio (IC50 of standard peptide / IC50 of test peptide) was 0.0016 in the test with HLA-A*0301 (human) [1] and 0.019 in the test with HLA-A*1101 (human).
On to PLCPEEKQR (modifications not checked), for which the results for the binding affinity ratio (IC50 of standard peptide / IC50 of test peptide) in the test with HLA-A*0301 (human) [1] and with HLA-A*1101 (human) were 0.0002 and 0.0005, respectively.
Take KLRHLNEKR (modifications not checked) [HPV18 E6 peptide … (position 117, 9 amino acids)]: the results for the relative binding ratio (IC50 of standard peptide / IC50 of test peptide) with HLA-A*0301 (human) [1] and in the test with HLA-A*1101 (human) were 0.025 and 0.0005, respectively. The relative binding ratio (IC50 of standard peptide / IC50 of test peptide) (ratio to standard peptide) in the test with HLA-A*0301 (human) [3] turned out to be 0.025.
Turning to EVFEFAFK (modifications not checked) [HPV18 E6 peptide EVFEFAFK (position 43, 8 amino acids)], the relative binding ratio (IC50 of standard peptide / IC50 of test peptide) with HLA-A*0301 (human) [1] amounted to 0.0025; with HLA-A*1101 (human), 0.018. Moreover, the relative binding ratio (IC50 of standard peptide / IC50 of test peptide) (ratio to standard peptide) with HLA-A*0301 (human) [2] is 0.0025.
RARQERLQR (modifications not checked) [HPV18 E6 peptide … (position 144, 9 amino acids)]: in the test with HLA-A*1101 (human), the relative binding ratio (IC50 of standard peptide / IC50 of test peptide) was 0.0002.
For LLIRCLRCQK (modifications not checked) [HPV18 E6 peptide … (position 101, 10 amino acids)], the values for the relative binding ratio (IC50 of standard peptide / IC50 of test peptide) with HLA-A*0301 (human) [1], with HLA-A*1101 (human) and with HLA-A*0301 (human) [2] were 0.047, 0.12 and 0.047, respectively.
For KLRHLNEKRR (modifications not checked) [HPV18 E6 peptide … (position 117, 10 amino acids)], the relative binding ratio (IC50 of standard peptide / IC50 of test peptide) with HLA-A*1101 (human) was found to be 0.0001.
Turning to CVQSTHVDIR (modifications not checked), the results for the binding affinity ratio (IC50 of standard peptide / IC50 of test peptide) with HLA-A*0301 (human) [1] and in the test with HLA-A*1101 (human) were 0.0049 and 0.0001, respectively.
In the case of MLIQPPKLR (modifications not checked) [… (HPV31 E1, position 285, 9 amino acids)], the binding affinity ratio (IC50 of standard peptide / IC50 of test peptide) (ratio relative to standard peptide) amounted to 0.0005 in the test with HLA-A*0301 (human) [1] and 0.0014 with HLA-A*1101 (human).
For LTEVFEFAFK (modifications not checked) [HPV18 E6 peptide … (position 41, 10 amino acids)], the relative binding ratio (IC50 of standard peptide / IC50 of test peptide) is 0.0001 with HLA-A*0301 (human) [1], 0.036 in the test with HLA-A*1101 (human) and 0.0001 with HLA-A*0301 (human) [2].
On to WLQPLADAK (modifications not checked) [… (HPV31 E1, position 489, 9 amino acids)], for which the binding affinity ratio (IC50 of standard peptide / IC50 of test peptide) (ratio relative to standard peptide) with HLA-A*0301 (human) [1] amounted to 0.0005; with HLA-A*1101 (human) it was 0.0002.
For the molecule DSVYGDTLEK (modifications not checked) [HPV18 E6 peptide … (position 83, 10 amino acids)], the relative binding ratio (IC50 of standard peptide / IC50 of test peptide) with HLA-A*0301 (human) [1] amounted to 0.0005; in the test with HLA-A*1101 (human), 0.0051. Besides, the relative binding ratio (IC50 of standard peptide / IC50 of test peptide) (ratio to standard peptide) in the test with HLA-A*0301 (human) [2] turned out to be 0.0005.
On to PLNPAEKLR (modifications not checked) [HPV18 E6 peptide … (position 111, 9 amino acids)], for which the relative binding ratio (IC50 of standard peptide / IC50 of test peptide) with HLA-A*0301 (human) [1] turned out to be 0.0002; with HLA-A*1101 (human) it was 0.0005; with HLA-A*0301 (human) [3] it was 0.0002.
In the case of SIPHAACHK (modifications not checked) [HPV18 E6 peptide … (position 59, 9 amino acids)], the figures for the relative binding ratio (IC50 of standard peptide / IC50 of test peptide) with HLA-A*0301 (human) [1], with HLA-A*1101 (human) and with HLA-A*0301 (human) [3] were 0.017, 0.12 and 0.017, respectively.
In the case of DIEITCVYCK (modifications not checked) [HPV18 E6 peptide … (position 27, 10 amino acids)], the relative binding ratio (IC50 of standard peptide / IC50 of test peptide) is 0.0089 with HLA-A*0301 (human) [1] and 0.0021 in the test with HLA-A*1101 (human). Also, the relative binding ratio (IC50 of standard peptide / IC50 of test peptide) (ratio to standard peptide) in the test with HLA-A*0301 (human) [2] was 0.0089.
For GIVCPICSQK (modifications not checked), the binding affinity ratio (IC50 of standard peptide / IC50 of test peptide) was determined as 0.0003 with HLA-A*0301 (human) [1] (setting [4]) and 0.067 with HLA-A*1101 (human) (setting [4]).
CMCCKCEARIK (modifications not checked) [HPV18 E7 peptide … (position 63, 11 amino acids)]: the relative binding ratio (IC50 of standard peptide / IC50 of test peptide) came out at 0.0014 with HLA-A*0301 (human) [1] and 0.0002 with HLA-A*1101 (human).
As to CIDFYSRIR (modifications not checked) [HPV18 E6 peptide … (position 68, 9 amino acids)], the relative binding ratio (IC50 of standard peptide / IC50 of test peptide) with HLA-A*0301 (human) [1] and with HLA-A*1101 (human) was 0.0001 each time. Moreover, the relative binding ratio (IC50 of standard peptide / IC50 of test peptide) (ratio to standard peptide) with HLA-A*0301 (human) [2] is 0.0001.
Turning to LVRNFKSDK (modifications not checked) [HPV45 E1 215 …], the values for the relative binding ratio (IC50 of standard peptide / IC50 of test peptide) (ratio to standard peptide) in the test with HLA-A*0301 (human) [1] and with HLA-A*1101 (human) were 0.0005 and 0.0002, respectively.
With TMLCMCCK (modifications not checked) [HPV18 E7 peptide TMLCMCCK (position 60, 8 amino acids)], the relative binding ratio (IC50 of standard peptide / IC50 of test peptide) with HLA-A*0301 (human) [1] and with HLA-A*1101 (human) was 0.024 each time.
For the molecule NSNAAAFLK (modifications not checked) [HPV45 E1 379 …], the relative binding ratio (IC50 of standard peptide / IC50 of test peptide) (ratio to standard peptide) was determined as 0.0057 in the test with HLA-A*0301 (human) [1] and 0.37 with HLA-A*1101 (human).
Consider NTGLYNLLIR (modifications not checked) [HPV18 E6 peptide … (position 95, 10 amino acids)], for which the relative binding ratio (IC50 of standard peptide / IC50 of test peptide) with HLA-A*0301 (human) [1] came out at 0.0002; in the test with HLA-A*1101 (human), 0.0013; with HLA-A*0301 (human) [2], 0.0002.
As for AVCDKCLK (modifications not checked) [HPV16 E6 peptide AVCDKCLK], the binding affinity ratio (IC50 of standard peptide / IC50 of test peptide) was 0.0053 in the test with HLA-A*0301 (human) [1] and 0.011 with HLA-A*1101 (human).
With EGTGCNGWFY (modifications not checked) [HPV31 E1 peptide … (position 10, 10 amino acids)], in the test with HLA-A*0301 (human) [3], the binding affinity ratio (IC50 of standard peptide / IC50 of test peptide) (ratio relative to standard peptide) came to 0.0005.
In the case of GLSFTDLVR (modifications not checked) [HPV45 E1 209 …], the results for the relative binding ratio (IC50 of standard peptide / IC50 of test peptide) (ratio to standard peptide) with HLA-A*0301 (human) [1] and with HLA-A*1101 (human) were 0.0009 and 0.0025, respectively.
In the case of LLIRCINCQK (modifications not checked), the binding affinity ratio (IC50 of standard peptide / IC50 of test peptide) was found to be 0.021 with HLA-A*0301 (human) [1] and 0.18 in the test with HLA-A*1101 (human).
For EVYDFAFR (modifications not checked) [HPV16 E6 peptide EVYDFAFR], in that order: 0.0004 and 0.0025.
Regarding GVLILALLR (modifications not checked) [HPV45 E1 265 …], the relative binding ratio (IC50 of standard peptide / IC50 of test peptide) (ratio to standard peptide) stood at 0.0058 with HLA-A*0301 (human) [1] and 0.14 in the test with HLA-A*1101 (human).
Consider NIRGRWTGR (modifications not checked), for which the values for the binding affinity ratio (IC50 of standard peptide / IC50 of test peptide) with HLA-A*0301 (human) [1] and in the test with HLA-A*1101 (human) were 0.0014 and 0.0005, respectively.
